Source: the supplement of paper PMC11246515
± gives the standard deviation of the averaged measurements.

Assay: total protein half-life in vivo (active degradation + dilution); higher = more stable protein
[1] = E. coli NCM3722 delta-clpP delta-lon delta-hslV, growth: N-lim chemostat, doubling time 6 h
[2] = E. coli NCM3722 delta-clpP, growth: N-lim chemostat, doubling time 6 h
[3] = E. coli NCM3722 delta-lon, growth: N-lim chemostat, doubling time 6 h
[4] = E. coli NCM3722 delta-smpB, growth: N-lim chemostat, doubling time 6 h
[5] = wild type E. coli NCM3722, growth: C-lim chemostat, doubling time 3 h
[6] = wild type E. coli NCM3722, growth: C-lim chemostat, doubling time 6 h
[7] = wild type E. coli NCM3722, growth: C-lim chemostat, doubling time 12 h
[8] = wild type E. coli NCM3722, growth: N-lim chemostat, doubling time 6 h
[9] = wild type E. coli NCM3722, growth: N-lim chemostat, doubling time 12 h
[10] = wild type E. coli NCM3722, growth: P-lim chemostat, doubling time 6 h
[11] = wild type E. coli NCM3722, growth: P-lim chemostat, doubling time 12 h
[12] = E. coli NCM3722 delta-hslV, growth: N-lim chemostat, doubling time 6 h

Sequence	total protein half-life in vivo [1] [h]	total protein half-life in vivo [2] [h]	total protein half-life in vivo [3] [h]	total protein half-life in vivo [4] [h]	total protein half-life in vivo [5] [h]	total protein half-life in vivo [6] [h]	total protein half-life in vivo [7] [h]	total protein half-life in vivo [8] [h]	total protein half-life in vivo [9] [h]	total protein half-life in vivo [10] [h]	total protein half-life in vivo [11] [h]	total protein half-life in vivo [12] [h]
MESWLIPAAPVTVVEEIKKSRFITMLAHTDGVEAAKAFVESVRAEHPDARHHCVAWVAGAPDDSQQLGFSDDGEPAGTAGKPMLAQLMGSGVGEITAVVVRYYGGILLGTGGLVKAYGGGVNQALRQLTTQRKTPLTEYTLQCEYHQLTGIEALLGQCDGKIINSDYQAFVLLRVALPAAKVAEFSAKLADFSRGSLQLLAIEE	5.13	3.99 ± 0.14	3.84 ± 0.059	2.87 ± 0.15	2.93 ± 0.19	4.62 ± 0.11	15	3.48 ± 0.22	4.67 ± 0.14	4.78	7.73 ± 0.15	–
MESYSQNSNKLDFQHEARILNGIWLITALGLVATAGLAWGAKYIEITATKYDSPPMYVAIGLLLLCMYGLSKDINKINAAIAGVIYLFLLSLVAIVVASLVPVYAIIIVFSTAGAMFLISMLAGLLFNVDPGSHRFIIMMTLTGLALVIIVNAALMSERPIWIISCLMIVLWSGIISHGRNKLLELAGKCHSEELWSPVRCAFTGALTLYYYFIGFFGILAAIAITLVWQRHTRFFH	–	–	–	–	–	–	–	> 8	–	–	–	–
METLIAISRWLAKQHVVTWCVQQEGELWCANAFYLFDAQKVAFYILTEEKTRHAQMSGPQAAVAGTVNGQPKTVALIRGVQFKGEIRRLEGEESDLARKAYNRRFPVARMLSAPVWEIRLDEIKFTDNTLGFGKKMIWLRDSGTEQA	5.46 ± 0.32	5.48 ± 0.64	–	4.81 ± 0.52	–	6.11 ± 0.22	13.5 ± 1.2	5.11 ± 0.18	9.39 ± 0.75	5.48 ± 1.1	12.5 ± 0.68	–
METPQPDKTGMHILLKLASLVVILAGIHAAADIIVQLLLALFFAIVLNPLVTWFIRRGVQRPVAITIVVVVMLIALTALVGVLAASFNEFISMLPKFNKELTRKLFKLQEMLPFLNLHMSPERMLQRMDSEKVVTFTTALMTGLSGAMASVLLLVMTVVFMLFEVRHVPYKMRFALNNPQIHIAGLHRALKGVSHYLALKTLLSLWTGVIVWLGLELMGVQFALMWAVLAFLLNYVPNIGAVISAVPPMIQVLLFNGVYECILVGALFLVVHMVIGNILEPRMMGHRLGMSTMVVFLSLLIWGWLLGPVGMLLSVPLTSVCKIWMETTKGGSKLAILLGPGRPKSRLPG [P0AGM0]	6.64 ± 0.097	–	–	5.16	–	7.02	11.5 ± 0.41	–	–	–	13.6	–
MEWLVKKSCCNKQDNRHVLMLCDAGGAIKMIAEVKSDFAVKVGDLLSPLQNALYCINREKLHTVKVLSASSYSPDEWERQCKVAGKTQ	5.09 ± 0.77	–	3.35	4.9	2.04 ± 0.53	4.32	7.64 ± 1.4	–	4.88	4.39	7.16 ± 1.1	3.24
MEWSLTQNKLLAFHRLMRTDKPIGALLLLWPTLWALWVATPGVPQLWILAVFVAGVWLMRAAGCVVNDYADRKFDGHVKRTANRPLPSGAVTEKEARALFVVLVLISFLLVLTLNTMTILLSIAALALAWVYPFMKRYTHLPQVVLGAAFGWSIPMAFAAVSESVPLSCWLMFLANILWAVAYDTQYAMVDRDDDVKIGIKSTAILFGQYDKLIIGILQIGVLALMAIIGELNGLGWGYYWSILVAGALFVYQQKLIANREREACFKAFMNNNYVGLVLFLGLAMSYWHF [P0AGK1]	1.5 ± 0.18	1.13	0.759	1.45 ± 0.17	1.27 ± 0.027	1.92 ± 0.27	2.32 ± 0.41	1.29 ± 0.2	–	2.18 ± 0.52	2.85	1.29
MFDFSKVVDRHGTWCTQWDYVADRFGTADLLPFTISDMDFATAPCIIEALNQRLMHGVFGYSRWKNDEFLAAIAHWFSTQHYTAIDSQTVVYGPSVIYMVSELIRQWSETGEGVVIHTPAYDAFYKAIEGNQRTVMPVALEKQADGWFCDMGKLEAVLAKPECKIMLLCSPQNPTGKVWTCDELEIMADLCERHGVRVISDEIHMDMVWGEQPHIPWSNVARGDWALLTSGSKSFNIPALTGAYGIIENSSSRDAYLSALKGRDGLSSPSVLALTAHIAAYQQGAPWLDALRIYLKDNLTYIADKMNAAFPELNWQIPQSTYLAWLDLRPLNIDDNALQKALIEQEKVAIMPGYTYGEEGRGFVRLNAGCPRSKLEKGVAGLINAIRAVR	5.24 ± 1.1	4.66 ± 0.39	5.26 ± 0.077	4.53 ± 0.058	3.15 ± 0.095	5.26 ± 0.26	10.2 ± 2	4.39 ± 0.095	7.95 ± 0.93	5.78 ± 0.25	11 ± 1.4	4.58 ± 0.52
MFDVLMYLFETYIHTEAELRVDQDKLEQDLTDAGFEREDIYNALLWLEKLADYQEGLAEPMQLASDPLSMRIYTPEECERLDASCRGFLLFLEQIQVLNLETREMVIERVLALDNAEFELDDLKWVILMVLFNIPGCENAYQQMEELLFEVNEGMLH [P0A828]	5.9529 ± 0.00025	0.182	0.569	0.365	–	–	0.0972	1.05	–	–	–	–
MFDYILSLGGTVFVPIIMIVIGLIFRIPWLQAIKAGVTVGIGFVGMGLVIVMAIDSLSPPIKVMIERFGLALHVFDVGAGPASGVGYATAIGAMIIPVIFLLNVAMLVTRLTKTMNVDIYNYWHYAITGTVVQLMTGSLIYGVLGAICHAALSLKMADWTAKRVQNIVGLEGISIPQGYGSSSVPLFVLLDAIYEKIPFMKGRNIDAQEIQKRYGMVGDPVIIGVVLGLIFGLAAGEGFKGCASLMITVAAIMVLFPRMIRLIVEGLLPISDGARKFFQKYFKGREVYIGLDTAVTLGHPTTIAVGLLLIPIMLILASILPGNKVLPLADLPVAPFFICMATVIHRGDLVRTLISGVIVMITVLLIATQFAPYFTEMALKGGFSFAGESAQISALSVGNMFGWSISELMSLGIIGVVVAVGIVASVVLFLRKRELSE	–	–	–	7.4	–	6 ± 0.68	–	–	–	–	–	–
MFEIHPVKKVSVVIPVYNEQESLPELIRRTTTACESLGKEYEILLIDDGSSDNSAHMLVEASQAENSHIVSILLNRNYGQHSAIMAGFSHVTGDLIITLDADLQNPPEEIPRLVAKADEGYDVVGTVRQNRQDSWFRKTASKMINRLIQRTTGKAMGDYGCMLRAYRRHIVDAMLHCHERSTFIPILANIFARRAIEIPVHHAEREFGESKYSFMRLINLMYDLVTCLTTTPLRMLSLLGSIIAIGGFSIAVLLVILRLTFGPQWAAEGVFMLFAVLFTFIGAQFIGMGLLGEYIGRIYTDVRARPRYFVQQVIRPSSKENE	5.758 ± 0.026	–	6.156 ± 0.045	6.14 ± 0.12	2.84 ± 0.4	6.77 ± 1.7	11.6 ± 0.56	6.21 ± 0.57	12.6 ± 0.58	6.08 ± 0.52	12.1 ± 0.46	6.356 ± 0.027
